Target: human GARP-TGF-β1 complex (human) (UniProt Q14392)

livmoniplimab (antibody)
minimal concentration that maximally inhibits TGF-β1 release and signaling (reporter assay): 0.8 µg/mL
